Literature values as cited in paper PMC6668730.
Like-named read-outs stand apart in the source and are kept apart here. One block for each substance: values may come before it.

Experiments:
[1] = target: Histone H3 (Homo sapiens) (UniProt P68431)
[2] = target: Histone H3 (Homo sapiens) (UniProt P68431); remark: listed apart in the source
[3] = target: Histone H3 (Drosophila melanogaster) (UniProt P02299)
[4] = target: Histone H3 (Drosophila melanogaster) (UniProt P02299); remark: listed apart in the source
[5] = target: Histone H3 (Homo sapiens) (UniProt P68431); remark: listed apart in the source

Sequence of GLP1 ankyrin repeats (Q9H9B1 737-1004): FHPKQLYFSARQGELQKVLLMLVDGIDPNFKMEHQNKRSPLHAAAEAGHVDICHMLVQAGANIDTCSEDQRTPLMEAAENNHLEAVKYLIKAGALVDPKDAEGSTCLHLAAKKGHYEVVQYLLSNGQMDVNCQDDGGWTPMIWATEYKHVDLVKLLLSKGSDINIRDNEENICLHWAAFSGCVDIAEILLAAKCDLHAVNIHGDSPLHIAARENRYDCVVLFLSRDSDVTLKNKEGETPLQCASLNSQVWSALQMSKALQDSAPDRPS
Sequence of G9a ankyrin repeats (Q96KQ7 649-879): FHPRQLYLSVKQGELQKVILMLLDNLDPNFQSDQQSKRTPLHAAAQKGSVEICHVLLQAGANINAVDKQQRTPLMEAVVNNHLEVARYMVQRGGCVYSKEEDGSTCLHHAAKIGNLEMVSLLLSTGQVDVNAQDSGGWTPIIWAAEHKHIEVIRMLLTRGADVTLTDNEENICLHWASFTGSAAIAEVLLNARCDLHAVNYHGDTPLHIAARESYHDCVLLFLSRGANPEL

Kd [1]: 5 µM
Kd [2]: 2.7 µM
Substance: BPTF PHD finger (from UniProt Q12830)

Kd [3]: 6 µM
Substance: G9a ankyrin repeats (from UniProt Q96KQ7)

Kd [4]: 7 µM
Kd [5]: 5 µM
Substance: GLP1 ankyrin repeats (from UniProt Q9H9B1)
